Experimental data from patent US8658372.

Target: botulinum toxoid A (UniProt P0DPI0)
Experiment: Luminex AMP-capture assay with antibody tracers

botulinum toxoid A, sequence (P0DPI0 2-1296): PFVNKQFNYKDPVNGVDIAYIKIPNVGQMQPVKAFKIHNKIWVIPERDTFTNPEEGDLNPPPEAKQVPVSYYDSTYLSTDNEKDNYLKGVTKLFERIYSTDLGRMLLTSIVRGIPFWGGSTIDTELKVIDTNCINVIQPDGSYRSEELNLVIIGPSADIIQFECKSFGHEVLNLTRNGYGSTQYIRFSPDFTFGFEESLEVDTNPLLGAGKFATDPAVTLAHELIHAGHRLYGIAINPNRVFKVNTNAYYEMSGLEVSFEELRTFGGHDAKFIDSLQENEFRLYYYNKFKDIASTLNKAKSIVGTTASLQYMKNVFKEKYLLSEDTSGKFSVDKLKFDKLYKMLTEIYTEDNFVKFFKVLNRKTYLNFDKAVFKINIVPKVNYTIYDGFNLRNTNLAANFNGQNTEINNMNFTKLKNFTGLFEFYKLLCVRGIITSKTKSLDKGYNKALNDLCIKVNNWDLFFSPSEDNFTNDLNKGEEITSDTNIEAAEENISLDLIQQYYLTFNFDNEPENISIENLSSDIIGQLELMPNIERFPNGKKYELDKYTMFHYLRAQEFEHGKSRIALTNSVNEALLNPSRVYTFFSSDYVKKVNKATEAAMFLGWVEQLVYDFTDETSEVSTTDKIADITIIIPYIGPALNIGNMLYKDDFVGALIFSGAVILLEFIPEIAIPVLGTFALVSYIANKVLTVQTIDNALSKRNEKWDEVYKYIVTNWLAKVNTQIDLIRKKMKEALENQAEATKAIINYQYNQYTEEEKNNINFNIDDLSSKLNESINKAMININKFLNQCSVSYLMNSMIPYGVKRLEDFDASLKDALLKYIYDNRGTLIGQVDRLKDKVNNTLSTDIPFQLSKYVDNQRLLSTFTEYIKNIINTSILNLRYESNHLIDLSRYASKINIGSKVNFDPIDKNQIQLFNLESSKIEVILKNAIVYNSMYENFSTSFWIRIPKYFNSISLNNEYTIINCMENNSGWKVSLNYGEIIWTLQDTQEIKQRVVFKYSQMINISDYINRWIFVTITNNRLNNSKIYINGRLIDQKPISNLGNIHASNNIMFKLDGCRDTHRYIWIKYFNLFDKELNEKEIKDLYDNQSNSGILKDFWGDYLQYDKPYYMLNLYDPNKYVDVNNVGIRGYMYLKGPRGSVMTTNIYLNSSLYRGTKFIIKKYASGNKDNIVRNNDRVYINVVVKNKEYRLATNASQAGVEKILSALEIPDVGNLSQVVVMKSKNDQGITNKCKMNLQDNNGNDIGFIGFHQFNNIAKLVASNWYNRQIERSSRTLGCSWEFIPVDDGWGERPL

AMP-derivatized Luminex beads
lowest detectable concentration: 1 µg/mL
